The experiment concerns SK-HEP-1/hGPC3 (SK-pca31a) xenograft tumor. Nature of the experiment: In vivo drug efficacy, NOD scid/T cell-injected model, SK-pca31a. Set-up: species or system NOD scid mice. The conditions noted are these: 5 mg/kg once through the tail vein, compared to the vehicle-administered group. The procedure: Methods called an NOD scid/T cell-injected model, a humanized NOG mouse model, and a human CD3εδγ gene-modified mouse model were used in the in vivo drug efficacy evaluation. Assay using an NOD scid/T cell-injected model was performed as follows. […] T cells expanded by culturing human PBMCs in vitro were injected into the NOD scid mice with confirmed tumor establishment. The mice were treated by administering bispecific antibody-38 and bispecific antibody-30, -31, -32, or -33. Assay using a humanized NOG mouse model was performed as follows. CD34-positive hematopoietic stem cells derived from umbilical cord blood were transplanted into NOG mice by tail vein injection. Human T cells are constantly supplied in the mice, which are called humanized NOG mice. The PC-10 cell line was transplanted into humanized NOG mice. The humanized NOG mice with confirmed establishment of PC-10 tumor were treated by administering antibody-38. Assay using a human CD3εδγ gene-modified mouse model was performed as follows. Cells of mouse-derived cell line forced to express human GPC3 were transplanted into a human CD3εδγ gene-modified mouse model, which had been prepared according to Reference Example 10. The human CD3εδγ gene-modified mice with confirmed tumor establishment were treated by administering antibody-38.
The drug efficacy evaluation studies for bispecific antibody-38, and bispecific antibody-30, -31, -32, and -33 in NOD scid/T cell-injected model were performed as follows. T cell expansion culture was performed using PBMCs separated from blood collected from a healthy person and T cell activation/expansion kit/human. Each of human cancer cell lines (MKN74, FU-97, SNU-1, SCC152, KYSE70, PC-10, HuH-7, TOV-21G, RMG-1, and SK-pca31a (SK-HEP-1/hGPC3)) was mixed with Matrigel™ Basement Membrane Matrix, and transplanted subcutaneously into NOD scid mice (CLEA Japan). An in vivo-passaged line (STM-03) was transplanted as about 2-mm tumor tissue cubes subcutaneously into NOD scid mice (CLEA Japan). The day of transplantation was defined as Day 0. On the day before transplantation, anti-asialo GM1 antibody (Wako Pure Chemical Industries) was administered intraperitoneally at 0.2 mg/mouse. When tumor was clearly established after transplantation, the mice were separated into groups based on tumor size and body weight. Then, anti-asialo GM1 antibody was administered intraperitoneally at 0.2 mg/mouse again. On the following day, T cells obtained by the aforementioned expansion culture were transplanted intraperitoneally at 1.5×10^7 to 3×10^7 cells/mouse. About two to five hours after T cell transplantation, antibody-38 was administered at 1 mg/kg (MKN74, FU-97, SNU-1, SCC152, KYSE70, PC-10, HuH-7, TOV-21G, RMG-1, and STM-03) through the tail vein. The administration was performed only once. […]

B1: antibody-30: optimized anti-human CD3ε chain and anti-human GPC3 bispecific antibody (antibody)
heavy 1: QVQLVESGGGLVQPGRSLRLSCAASGFTFSNAWMHWVRQAPGKGLEWVAQIKDKSQNYATYYAESVKGRFTISRDDSKNSLYLQMNSLKTEDTAVYYCRYVHYAAGYGVDAWGQGTTVTVSSASTKGPSVFPLAPCSRSTSESTAALGCLVKDYFPEPVTVSWNSGALTSGVHTFPAVLQSSGLYSLSSVVTVPSSSLGTKTYTCNVDHKPSNTKVDKRVESKYGPPCPPCPAPEFRGGPKVFLFPPKPKDTLMISRTPEVTCVVVDVSQEDPEVQFNWYVDGVEVHNAKTKPREEQFASTYRVVSVLTVLHQDWLNGKEYKCKVSNKGLPSSIEKTISKAKGQPREPQVYTLPPSQKEMTKNQVSLTCLVKGFYPSDIAVEWESNGQPENNYKTTPPVLDSDGSFFLYSKLTVDKSRWQEGNVFSCSVMHEALHNRYTQKSLSLSP
heavy 2: QVQLVQSGAEVKKPGASVTVSCKASGYTFTDYEMHWVRQAPGEGLEWMGAIDGETPDTAYSEKFKGRVTLTADKSTSTAYMELSSLTSEDTAVYYCTRFYSYTYWGQGTLVTVSSASTKGPSVFPLAPCSRSTSESTAALGCLVKDYFPEPVTVSWNSGALTSGVHTFPAVLQSSGLYSLSSVVTVPSSSLGTQTYTCNVDHKPSNTKVDKRVESKYGPPCPPCPAPEFRGGPKVFLFPPKPKDTLMISRTPEVTCVVVDVSQEDPEVQFNWYVDGVEVHNAKTKPREEQFASTYRVVSVLTVLHQDWLNGKEYKCKVSNKGLPSSIEKTISKAKGQPREPQVYTLPPSQEEMTKNQVSLTCLVKGFYPSDIAVEWESNGQPENNYKTTPPVLDSDGSFFLYSKLTVDKSRWQEGNVFSCSVMHEALHNHYTQESLSLSP
light: DIVMTQSPLSLPVTPGEPASISCRSSQPLVHSNRNTYLHWYQQKPGQAPRLLIYKVSNRFSGVPDRFSGSGSGTDFTLKISRVEAEDVGVYYCGQGTQVPYTFGQGTKLEIKRTVAAPSVFIFPPSDEQLKSGTASVVCLLNNFYPREAKVQWKVDNALQSGNSQESVTEQDSKDSTYSLSSTLTLSKADYEKHKVYACEVTHQGLSSPVTKSFNRGEC
B1: the anti-tumor effect entry is “evident anti-tumor effect”.

B2: antibody-33: optimized anti-human CD3ε chain and anti-human GPC3 bispecific antibody (antibody)
heavy 1: QVQLVESGGGLVQPGRSLRLSCAASGFTFSNAWMHWVRQAPGKGLEWVAQIKDKSQNYATYYAESVKGRFTISRDDSKNSLYLQMNSLKTEDTAVYYCRYVHYAAGYGVDAWGQGTTVTVSSASTKGPSVFPLAPCSRSTSESTAALGCLVKDYFPEPVTVSWNSGALTSGVHTFPAVLQSSGLYSLSSVVTVPSSSLGTKTYTCNVDHKPSNTKVDKRVESKYGPPCPPCPAPEFRGGPKVFLFPPKPKDTLMISRTPEVTCVVVDVSQEDPEVQFNWYVDGVEVHNAKTKPREEQFASTYRVVSVLTVLHQDWLNGKEYKCKVSNKGLPSSIEKTISKAKGQPREPQVYTLPPSQKEMTKNQVSLTCLVKGFYPSDIAVEWESNGQPENNYKTTPPVLDSDGSFFLYSKLTVDKSRWQEGNVFSCSVMHEALHNRYTQKSLSLSP
heavy 2: QVQLVQSGAEVKKPGASVTVSCKASGYTFTDYEMHWIRQPPGEGLEWIGAIDGPTPDTAYSEKFKGRVTLTADKSTSTAYMELSSLTSEDTAVYYCTRFYSYTYWGQGTLVTVSSASTKGPSVFPLAPCSRSTSESTAALGCLVKDYFPEPVTVSWNSGALTSGVHTFPAVLQSSGLYSLSSVVTVPSSSLGTQTYTCNVDHKPSNTKVDKRVESKYGPPCPPCPAPEFRGGPKVFLFPPKPKDTLMISRTPEVTCVVVDVSQEDPEVQFNWYVDGVEVHNAKTKPREEQFASTYRVVSVLTVLHQDWLNGKEYKCKVSNKGLPSSIEKTISKAKGQPREPQVYTLPPSQEEMTKNQVSLTCLVKGFYPSDIAVEWESNGQPENNYKTTPPVLDSDGSFFLYSKLTVDKSRWQEGNVFSCSVMHEALHNHYTQESLSLSP
light: DIVMTQSPLSLPVTPGEPASISCRSSQPLVHSNRNTYLHWYQQKPGQAPRLLIYKVSNRFSGVPDRFSGSGSGTDFTLKISRVEAEDVGVYYCGQGTQVPYTFGQGTKLEIKRTVAAPSVFIFPPSDEQLKSGTASVVCLLNNFYPREAKVQWKVDNALQSGNSQESVTEQDSKDSTYSLSSTLTLSKADYEKHKVYACEVTHQGLSSPVTKSFNRGEC
With B2, the anti-tumor effect result is “evident anti-tumor effect”.

B3: antibody-32: optimized anti-human CD3ε chain and anti-human GPC3 bispecific antibody (antibody)
heavy 1: QVQLVESGGGVVQPGGSLRLSCAASGFTFSNAWMHWVRQAPGKGLEWVAQIKDKSQNYATYYAESVKGRFTISRADSKNSIYLQMNSLKTEDTAVYYCRYVHYAAGYGVDIWGQGTTVTVSSASTKGPSVFPLAPCSRSTSESTAALGCLVKDYFPEPVTVSWNSGALTSGVHTFPAVLQSSGLYSLSSVVTVPSSSLGTKTYTCNVDHKPSNTKVDKRVESKYGPPCPPCPAPEFRGGPKVFLFPPKPKDTLMISRTPEVTCVVVDVSQEDPEVQFNWYVDGVEVHNAKTKPREEQFASTYRVVSVLTVLHQDWLNGKEYKCKVSNKGLPSSIEKTISKAKGQPREPQVYTLPPSQKEMTKNQVSLTCLVKGFYPSDIAVEWESNGQPENNYKTTPPVLDSDGSFFLYSKLTVDKSRWQEGNVFSCSVMHEALHNRYTQKSLSLSP
heavy 2: QVQLVQSGAEVKKPGASVTVSCKASGYTFTDYEMHWIRQPPGEGLEWIGAIDGPTPDTAYSEKFKGRVTLTADKSTSTAYMELSSLTSEDTAVYYCTRFYSYTYWGQGTLVTVSSASTKGPSVFPLAPCSRSTSESTAALGCLVKDYFPEPVTVSWNSGALTSGVHTFPAVLQSSGLYSLSSVVTVPSSSLGTQTYTCNVDHKPSNTKVDKRVESKYGPPCPPCPAPEFRGGPKVFLFPPKPKDTLMISRTPEVTCVVVDVSQEDPEVQFNWYVDGVEVHNAKTKPREEQFASTYRVVSVLTVLHQDWLNGKEYKCKVSNKGLPSSIEKTISKAKGQPREPQVYTLPPSQEEMTKNQVSLTCLVKGFYPSDIAVEWESNGQPENNYKTTPPVLDSDGSFFLYSKLTVDKSRWQEGNVFSCSVMHEALHNHYTQESLSLSP
light: DIVMTQSPLSLPVTPGEPASISCRSSQPLVHSNRNTYLHWYQQKPGQAPRLLIYKVSNRFSGVPDRFSGSGSGTDFTLKISRVEAEDVGVYYCGQGTQVPYTFGQGTKLEIKRTVAAPSVFIFPPSDEQLKSGTASVVCLLNNFYPREAKVQWKVDNALQSGNSQESVTEQDSKDSTYSLSSTLTLSKADYEKHKVYACEVTHQGLSSPVTKSFNRGEC
With B3, the anti-tumor effect result was “evident anti-tumor effect”.

B4: antibody-31: optimized anti-human CD3ε chain and anti-human GPC3 bispecific antibody (antibody)
heavy 1: QVQLVESGGGVVQPGGSLRLSCAASGFTFSNAWMHWVRQAPGKGLEWVAQIKDKSQNYATYYAESVKGRFTISRADSKNSIYLQMNSLKTEDTAVYYCRYVHYAAGYGVDIWGQGTTVTVSSASTKGPSVFPLAPCSRSTSESTAALGCLVKDYFPEPVTVSWNSGALTSGVHTFPAVLQSSGLYSLSSVVTVPSSSLGTKTYTCNVDHKPSNTKVDKRVESKYGPPCPPCPAPEFRGGPKVFLFPPKPKDTLMISRTPEVTCVVVDVSQEDPEVQFNWYVDGVEVHNAKTKPREEQFASTYRVVSVLTVLHQDWLNGKEYKCKVSNKGLPSSIEKTISKAKGQPREPQVYTLPPSQKEMTKNQVSLTCLVKGFYPSDIAVEWESNGQPENNYKTTPPVLDSDGSFFLYSKLTVDKSRWQEGNVFSCSVMHEALHNRYTQKSLSLSP
heavy 2: QVQLVQSGAEVKKPGASVTVSCKASGYTFTDYEMHWVRQAPGEGLEWMGAIDGETPDTAYSEKFKGRVTLTADKSTSTAYMELSSLTSEDTAVYYCTRFYSYTYWGQGTLVTVSSASTKGPSVFPLAPCSRSTSESTAALGCLVKDYFPEPVTVSWNSGALTSGVHTFPAVLQSSGLYSLSSVVTVPSSSLGTQTYTCNVDHKPSNTKVDKRVESKYGPPCPPCPAPEFRGGPKVFLFPPKPKDTLMISRTPEVTCVVVDVSQEDPEVQFNWYVDGVEVHNAKTKPREEQFASTYRVVSVLTVLHQDWLNGKEYKCKVSNKGLPSSIEKTISKAKGQPREPQVYTLPPSQEEMTKNQVSLTCLVKGFYPSDIAVEWESNGQPENNYKTTPPVLDSDGSFFLYSKLTVDKSRWQEGNVFSCSVMHEALHNHYTQESLSLSP
light: DIVMTQSPLSLPVTPGEPASISCRSSQPLVHSNRNTYLHWYQQKPGQAPRLLIYKVSNRFSGVPDRFSGSGSGTDFTLKISRVEAEDVGVYYCGQGTQVPYTFGQGTKLEIKRTVAAPSVFIFPPSDEQLKSGTASVVCLLNNFYPREAKVQWKVDNALQSGNSQESVTEQDSKDSTYSLSSTLTLSKADYEKHKVYACEVTHQGLSSPVTKSFNRGEC
Take B4: the anti-tumor effect result is listed as “evident anti-tumor effect”.

Values taken from patent US20250066503A1, “CELL INJURY INDUCING THERAPEUTIC DRUG FOR USE IN CANCER THERAPY” (CHUGAI SEIYAKU KABUSHIKI KAISHA, priority 2016, published 2025).
